Measured values from US20060026702A1, “Phosphoinositide 3-kinase mediated inhibition of GPCRs” (DUKE UNIVERSITY, priority 2002, published 2006).

How the values were obtained:
β2AR complex = assay: Recruitment of AP-2 adaptin and clathrin to the agonist-stimulated β2AR complex (immunoprecipitation, immunoblot); format: cell-based; settings: HEAT co-transfected
Method: Immunoblotting and Detection—Immunoblotting and detection of PI3K, βARK1, HA-PI3Kγ, HA-ΔPI3Kγ, Myc-PI3Kα, FLAG-HEAT, PI3KΔHEAT-HA, FLAG-β2AR, HA-β2AR, β-adaptin and clathrin was carried out as previously described. Immunoprecipitating antibodies were added to 500 μg of cell lysate in lysis buffer followed by the addition of 35 μl of 1:1 Protein A- or G-agarose. Samples were rocked overnight at 4° C. then centrifuged at 12,000×g for 5 min. Immunoprecipitates were washed twice with lysis buffer, twice with 1×PBS and resuspended in 1×SDS-gel loading buffer. Proteins were resolved by SDS-polyacrylamide gel electrophoresis and blotted on to PVDF membrane (Bio-Rad). Blots were incubated with antibodies recognizing PI3K, Myc (Santa-Cruz), β-adaptin, clathrin heavy chain (BD Transduction Laboratories), HA (Roche Molecular Biochemicals) and FLAG (Sigma) at 1:2000 dilution and the βARK1 monoclonal antibody at 1:10,000 dilution. Blots were subsequently incubated with appropriate secondary antibody (1:2000 dilution) conjugated to horseradish peroxidase (Amersham Pharmacia Biotech) and detection was carried out using enhanced chemiluminescence. […]
The present inventors determined that βARK1-mediated localization of PI3K within the activated receptor complex is responsible for the generation of D-3 phosphatidylinositols necessary for the efficient recruitment of adaptin to the P2AR complex. […]

V2R-GFP = biological target: T1, V2R-GFP (Homo sapiens, UniProt P30518); assay: Endocytosis of V2R-GFP in live cells by confocal microscopy; format: cell-based; settings: AVP 10 μM; HEAT co-expressed
T1 construct: expressed in transfected cells; host or cells: HEK 293
Method: Disruption of the endogenous βARK1/PI3K interaction by the HEAT protein attenuated V2R endocytosis. Endocytosis of V2R-GFP in live cells was monitored for 20 min following AVP (10 μM) stimulation in the absence or presence of HEAT protein co-expression using confocal microscopy. HEK 293 cells were transfected with either GFP-V2R (2 μg)/pRK5 (2 μg) or GFP-V2R (2 μg)/HEAT (2 μg). V2R internalization was followed in the same cell after agonist stimulation. Prior to agonist, the distribution of V2R-GFP was found distinctly at the plasma membrane (FIG. 14, 0 min). Following agonist treatment, there was redistribution of the V2R-GFP into membrane puncta consistent with entry into clathrin coated pits. With time, this was followed by the formation of cytoplasmic aggregates, and then with the complete loss of membrane fluorescence (FIG. 14, 6-24 min). […] In FIG. 14, panels on the left represent cells transfected with the V2R-GFP alone (panels show the same cell monitored at 0, 6, 12, 18, and 24 min following stimulation). Panels on the right represent cell transfected with V2R-GFP and HEAT (panels show the same cell monitored as above). In the absence of HEAT, agonist caused the internalization V2R5 as shown by the formation of distinct cytoplasmic aggregates and complete loss of membrane fluorescence.

PI3K = assay: βAR associated and endogenous PI3K activity (lipid kinase assay) in HEK-293 cells; settings: HEAT (4 μg cDNA) co-transfected; 10 μM isoproterenol
Method: Lipid Kinase Assays—Cells were lysed in lysis buffer and 2 mg cytosolic extract was used for immunoprecipitation with either the C5/1 monoclonal antibody directed against βARK1, the anti-FLAG M2 monoclonal antibody (Sigma) or antibodies to p110γ, or p110β (Santa Cruz Biotechnology) and protein G-agarose. Sedimented beads were then washed once with 1 ml of lysis buffer, thrice with 1 ml of phosphate-buffered saline (1× phosphate-buffered saline, 1% NP-40 and 100 μM sodium orthovanadate), thrice with 1 ml of Tris/LiCl (100 mM Tris-HCl (pH 7.4), 5 mM LiCl and 100 μM sodium orthovanadate) and twice with TNE (10 mM Tris Cl (pH 7.4), 150 mM NaCl, 5 mM EDTA and 100 μM sodium orthovanadate). […] Autoradiography of dried plates was used to detect signals, and PIP was quantified by phosphorimaging. […] Values are expressed as fold increase/decrease relative to wild-type/control.
They used HEK-293 cells transfected with either FLAG epitope tagged β1AR or β2AR plasmids and monitored the association of PI3K to the receptor after agonist stimulation. […] The FLAG epitope was immunoprecipitated from 500 ug of protein from the cytosolic extracts and PI3K activity measured.
HEK-293 cells were transfected with FLAG β1AR (upper panel) and FLAG β2AR (lower panel). […] Cell extracts were used to immunoprecipitate β1AR and β2AR using the anti-FLAG antibody and PI3K activity was measured in the immunoprecipitates.

phospho-PKB = assay: PKB activation (phospho-PKB immunoblot) in HEK 293 cells; format: cell-based; settings: IGF, carbachol or isoproterenol stimulation; HEAT transfected
AT1AR-GFP = biological target: T2, AT1AR-GFP (Rattus norvegicus, UniProt P25095); assay: Endocytosis of AT1AR-GFP in live cells by confocal microscopy; format: cell-based; settings: Angiotensin II 10 μM, 20 min; HEAT co-expressed
T2 construct: expressed in transfected cells; host or cells: HEK 293
T2 sequence (P25095 1-359): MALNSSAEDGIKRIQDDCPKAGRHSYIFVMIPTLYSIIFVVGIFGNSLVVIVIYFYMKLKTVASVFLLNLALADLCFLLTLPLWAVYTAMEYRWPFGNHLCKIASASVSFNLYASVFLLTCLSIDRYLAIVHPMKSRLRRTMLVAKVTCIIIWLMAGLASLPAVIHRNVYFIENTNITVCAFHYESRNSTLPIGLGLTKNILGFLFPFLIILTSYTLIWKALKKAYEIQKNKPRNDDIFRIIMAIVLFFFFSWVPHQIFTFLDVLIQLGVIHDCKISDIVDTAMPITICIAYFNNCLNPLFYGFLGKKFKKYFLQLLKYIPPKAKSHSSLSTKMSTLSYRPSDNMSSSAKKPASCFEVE
Method: Disruption of the endogenous βARK1/PI3K interaction by the HEAT protein attenuated AT1AR endocytosis. Endocytosis of AT1AR-GFP in live cells was monitored for 20 min following angiotensin (10 μM) stimulation in the absence or presence of HEAT protein co-expression using confocal microscopy. HEK 293 cells were transfected with 2 μg Angiotensin II Type 1 Receptor, or with 2 pg Angiotensin II Type 1 Receptor and 2 μg HEAT, and stimulated for 20 minutes with 10 μM Angiotensin II. AT1AR internalization was followed in the same cell after agonist stimulation. Prior to agonist, the distribution of AT1AR-GFP was found distinctly at the plasma membrane (FIG. 15, 0 min). […] With time, this was followed by the formation of cytoplasmic aggregates, and then with the complete loss of membrane fluorescence (FIG. 15, 5-20 min). […] In FIG. 15, panels on the left represent cells transfected with the AT1AR-GFP alone (panels show the same cell monitored at 0, 5, 10, 15, and 20 min following stimulation). Panels on the right represent cell transfected with AT1AR-GFP and HEAT (panels show the same cell monitored as above). In the absence of HEAT, agonist caused the internalization AT1ARs as shown by the formation of distinct cytoplasmic aggregates and complete loss of membrane fluorescence.

B1: HEAT: 197 amino acid HEAT domain of PI3Kγ, FLAG epitope-tagged (SEQ ID NO: 2), overexpressed in cells (protein, listed as Homo sapiens)
chain: MDYKDDDDKHPIALPKHQPTPDDRVRAEMPNQLRKQLEAIIATDTAEDKELLWHFRYESLKHPKAYPKLFSSVKWGQQEIVAKTYQLLARREVWDQSALDVGLTMQLLDCNFSDENVRAIAVQKLESLEDDDVLHYLLQLVQAVKFEPYHDSALARFLLKRGLRNKRIGHFLFWFLRSEIAQSRHYQQRFAVILEAYLRGCGTA
modifications: FLAG tag
With B1 the “recruitment of adaptin to the agonist-stimulated β2AR complex” value (β2AR complex; 10 μM isoproterenol 0-10 min) was “completely abolished”, the “clathrin co-immunoprecipitated with the receptor after agonist” value (β2AR complex) was “attenuated” and the “receptor endocytosis (redistribution of V2R-GFP)” value (V2R-GFP) was “completely inhibited”. The “FLAG-β2AR associated PI3K activity” value (PI3K) was “marked decrease”, the “cellular signaling downstream of PI3K (PKB activation)” value (phospho-PKB) was “no effect” and the “receptor endocytosis (redistribution of AT1AR-GFP)” value (AT1AR-GFP) was “completely inhibited”.
